{
  "source": "paper PMC9051516",
  "key": {"[1]": {"target": "TGBp1-cYFP (cowpea mild mottle virus triple gene block protein 1 fused to the C-terminal half of YFP) (cowpea mild mottle virus (isolate CPMMV_AH_SZ))", "assay": "split reporter (BiFC, NanoBiT); BiFC of the TGBp1 and TGBp3 YFP halves with TGBp2-Flag co-expressed in N. benthamiana leaves; confocal microscopy 48 h after infiltration; mean intensity of whole images by ImageJ"}, "[2]": {"target": "TGBp1-cYFP (cowpea mild mottle virus triple gene block protein 1 fused to the C-terminal half of YFP) (cowpea mild mottle virus (isolate CPMMV_AH_SZ))", "assay": "split reporter (BiFC, NanoBiT); BiFC: nYFP and cYFP fusions co-expressed by agroinfiltration in N. benthamiana leaves; YFP signal by confocal microscopy 48 h after infiltration; mean intensity of whole images by ImageJ"}},
  "data": [
    {"substance": "TGBp3-nYFP (cowpea mild mottle virus triple gene block protein 3 fused to the N-terminal half of YFP) (natural protein)", "values": [
      {"measurement": "mean fluorescence intensity of the BiFC signal, with TGBp2-Flag co-expressed", "setting": "[1]", "result": 95.9},
      {"measurement": "mean fluorescence intensity of the BiFC signal, without TGBp2-Flag", "setting": "[2]", "result": 75.7}
    ]}
  ]
}
